Key:
[1] = tested on: cultured microglia, Müller glia and RPE; assay: Cytotoxicity analysis in vitro; type: cell-based; conditions: data not shown
[2] = tested on: S. aureus (strain RN6390, USA 300, R 2932, R 2952, R 3000) biofilms; assay: Biofilm disruption (Live/Dead BacLight staining and CFU count); type: cell-based, Staphylococcus aureus; conditions: 24 h biofilms treated for 30 min
Procedure: FIGS. 2A-2E depicts the biofilm disruption activity of chimeric Ply187AN-KSH3b. In FIG. 2A-2E, either chimeric Ply187AN-KSH3b or EB (EB C) or Gentamicin (for MDR/MRSA strains/isolates) was applied to cover slips containing S. aureus RN6390 (FIG. 2A), USA 300 (FIG. 2B), R 2932 (FIG. 2C), R 2952 (FIG. 2D) and R3000 (FIG. 2E) biofilms for 30 min. Bacterial killing was assessed via Live/Dead™ staining and subsequent fluorescence microscopy. FIG. 2F depicts the viability of biofilm associated bacteria enumerated by CFU count. Error bars represent the mean±SEM of two independent experiments performed in triplicate.
Biofilm disruption by the chimeric Ply187AN-KSH3b was observed using Live/Dead BacLight™ staining which takes advantage of SYTO™ 9, a green-fluorescent nucleic acid stain and propidium iodide that fluoresces red. SYTO™ 9 labels a bacterial population with an intact membrane and fluoresces green. In contrast, propidium iodide penetrates bacteria with damaged membranes and fluoresces red. Briefly, static biofilms of S. aureus (strain RN6390, USA 300, R 2932, R 2952, R 3000) were grown on glass cover slips in 6 well tissue culture plates in fresh TSB media seeded with S. aureus. After incubation at 37° C. for 24 h, the biofilms were treated for an additional 30 min with chimeric Ply187AN-KSH3b (as per MIC) diluted in EB or with EB/gentamicin alone. The biofilms were then stained with the Live/Dead BacLight™ bacterial viability kit (Invitrogen, Carlsbad, Calif.), per manufacturer's instruction. The cover slips were washed three times with PBS to remove excess stain and cell debris, mounted with mounting oil on a glass slide, and examined with an Eclipse 90i fluorescence microscope (Nikon, Melville, N.Y.).

[3] = tested on: S. aureus RN6390; assay: Mouse S. aureus endophthalmitis: bacterial burden in eyes (plate count); type: in vivo, C57BL/6 mice; conditions: 24 h after treatment
Source text: FIGS. 4 A, B and C depict the effect of chimeric Ply187AN-KSH3b on bacterial growth in vivo and in the vitreous humor (VH) in vitro and with increasing inoculums in vitro respectively. […] Twenty-four hours after the treatment, the eyes were enucleated, homogenized and the bacterial burden was estimated via serial dilution plating. FIG. 4B depicts a test showing the effect of the vitreous humor on Ply187AN-KSH3b antimicrobial activity where Ply187AN-KSH3b was mixed with calf vitreous humor and inoculated with 10^5 CFU of S. aureus. The survival of the bacteria was enumerated by CFU count at 2, 4 and 6 h of incubation. Statistical analysis was performed using unpaired student's t test (*, p<0.05; **, p<0.005; ***, p<0.0005). […] An increasing number of dilutions (1:10,000 to 1:10) of logarithmic phase of S. aureus (RN6390 strain) were treated with Ply187AN-KSH3b for 1 h followed by CFU enumeration on TSA plates. Statistical analysis was performed using unpaired student's t test (*, p<0.05; **, p<0.005; ***, p<0.0005).
The bacterial burden in both chimeric Ply187AN-KSH3b- and vehicle-treated eyes was estimated using a bacterial plate count method. At the desired time point, the eyes were enucleated and homogenized in sterile PBS by stainless steel beads using Tissue lyser (Qiagen, Valencia, Calif.). […] The results were expressed as the mean number of CFU/eye ±SEM.

[4] = tested on: S. aureus RN6390 endophthalmitis; assay: Mouse S. aureus endophthalmitis: clinical score and slit lamp microscopy; type: in vivo, C57BL/6 mice; conditions: for mean clinical score: scored after 24 h, scale 0 to 4
Procedure: FIGS. 3A-3E show the effects of intravitreal injection of chimeric Ply187AN-KSH3b on the severity of S. aureus endophthalmitis. The eyes (n=10) of C57BL/6 mice were infected with S. aureus strain RN6390 and following either 6 h or 12 h post-infection, Ply187AN-KSH3b or EB (EB C) was administered by intravitreal injection. FIG. 3A depicts individual eyes assigned clinical scores (range 0 to 4; black dots represent an eye) and presented as mean clinical scores (bar with SEM). […] FIG. 3E depicts the total number of dead cells in the retinal sections that were counted and are presented as mean±SD of the TUNEL positive cells. A student's t test (**, p<0.005) was used for the statistical analysis and comparisons were made between the S. aureus (SA) control, SA+EBC, and SA+Ply187AN-KSH3b-treated group.
The eyes of C57BL/6 mice (female, 8 week old) were intravitreally injected with 1 μl of PBS containing 5000 colony forming units (CFU) of S. aureus RN6390 to induce endophthalmitis as described previously (Kumar et al., supra). The chimeric Ply187AN-KSH3b (1 μg/μl) treatment in EB was given after 6 h (group I) or 12 h (group II) post infection. In the control group, the eyes were treated with EB (EB C). The eye infected with S. aureus without any treatment was used as a disease control. Clinical examinations were performed using slit lamp microscopy. The ocular disease was graded, and clinical scores from 0 to 4.0 were assigned using the previously described scale (Whiston et al., supra; Ramadan et al. 2006. Curr. Eye Res. 31:955-965). The clinical score of 4 is considered as 100 percent damage. Based on this, the percent damage and percent retention of eyes were calculated in both Ply187AN-KSH3b-treated vs untreated S. aureus infected eyes. Mice were treated in compliance with the ARVO Statement for the Use of Animals in Ophthalmic and Vision Research and all procedures were approved by the Institutional Animal Care and Use Committee (IACUC) of Wayne State University.
We hypothesized that similar to antibiotics, chimeric Ply187AN-KSH3b would have beneficial effects in protecting the eyes from endophthalmitis. To test this hypothesis, we used a C57BL/6 mouse model of S. aureus endophthalmitis. Chimeric Ply187AN-KSH3b was administrated intravitreally (1 μg/eye in 1 μl volume of EB) 6 h and 12 h after bacterial infection. Eyes without any treatment or eyes injected with EB served as controls. After 24 h, each infected eye was assigned a clinical score.

B1: Ply187AN-KSH3b: staphylococcal peptidoglycan hydrolase fusion protein: endopeptidase domain of prophage endolysin Ply187 plus SH3b cell wall-binding domain of phage K endolysin LysK (SEQ ID NO:1) (protein)
chain: MALPKTGKPTAKQVVDWAINLIGSGVDVDGYYGRQCWDLPNYIFNRYWNFKTPGNARDMAWYRYPEGFKVFRNTSDFVPKPGDIAVWTGGNYNWNTWGHTGIVVGPSTKSYFYSVDQNWNNSNSYVGSPAAKIKHSYFGVTHFVRPAYKAEPKPTPPLESTPATRPVTGSWKKNQYGTWYKPENATFVNGNQPIVTRIGSPFLNAPVGGNLPAGATIVYDEVCIQAGHIWIGYNAYNGNRVYCPVRTCQGVPPNQIPGVAWGVFKVEHHHHHH
modifications: Chemically Synthesized Fusion Protein
- retinal cell death in vitro [1]: does not cause retinal cell death
- biofilm disruption by Live/Dead staining [2]: successfully disrupted biofilms
- CFU counts of biofilm associated bacteria ([2]; all strains tested): almost zero
- bacterial burden recovered ([3]; treatment 6 h post infection): 3.6×10^3 CFU/eye
- bacterial burden recovered ([3]; treatment 12 h post infection): 2.9×10^4 CFU/eye
- slit lamp microscopy appearance of eyes ([4]; 1 μg/eye intravitreal): clear/transparent corneas and/or anterior chambers
- mean clinical score ([4]; treatment 6 h post infection, 1 μg/eye intravitreal): 0.2
- mean clinical score ([4]; treatment 12 h post infection, 1 μg/eye intravitreal): 0.3
- retention of eyes (conversion of clinical scores) ([4]; treatment group, clinical score 4 = 100 percent damage): 90-95%
